One data set relates to O‐Mad2. To be noted: in vitro, ref Lad et al., [2009], Simonetta et al.; cited from earlier work. The text has this:
Juxtaposing the accessible Cdc20^MIM adjacent to O‐Mad2 by the MCC‐assembly scaffold involves the dimerization of an O‐Mad2 molecule with Mad1‐bound C‐Mad2 (Chen et al., [2023]; Fischer et al., [2022]; Lara‐Gonzalez et al., [2021]; Piano et al., [2021]).

The nature of data set [1]: Spontaneous O-Mad2 to C-Mad2 conversion / stability of the open state. The class given is physicochemical. The following applies: NMR backbone assignment samples. How it is done: FIGURE 2 NMR fingerprinting of Mad2. (a) Structural orientations of Trp75 (on the αB helix) and Trp167 (on the “safety‐belt”) in Mad2 produce distinct indole NH resonances. […] NMR spectra for O‐Mad2^R133A and “empty” C‐Mad2^L13A/R133A and C‐Mad2^R133A:Cdc20^MIM‐111‐138 are from Fischer et al. ([2022]) (c) Mad2 conversion rates vary with different MIM peptides. Conversion was traced over 24 h at 25°C using the Trp75 and Trp167 side‐chain resonances as reporters. MIM peptides were added at two‐fold molar excess to Mad2 (100 μM). Each spectrum required 12 min of acquisition time, therefore the 15 min time‐points represent the earliest spectra in the time‐resolved series. The schematics show the conformation of Mad2 as indicated by the tryptophan side‐chain resonances. A black tick marks when conversion is considered complete. NMR data for O‐Mad2^R133A with and without Cdc20^MIM‐111‐138 shown are from Fischer et al. ([2022]). In the case of full‐length Cdc20, the MIM sequence is sequestered by an auto‐inhibitory intramolecular interaction within Cdc20 itself, which prevents it from being readily accessible for binding to C‐Mad2 (Piano et al., [2021]). Conversely, isolated MIM peptides lack this auto‐inhibitory mechanism, allowing them to bind directly to C‐Mad2 without obstruction. […]

As to C‐Mad2: Mad2 in the closed active state, the “enhancement of O-Mad2 to C-Mad2 conversion rate by dimerization with C-Mad2” value with O‐Mad2 was 3 to 4 fold.

B1: Mad2^LL: loop‐less Mad2: residues 109–117 (…) replaced with GSG (protein)
chain: MALQLSREQGITLRGSAEIVAEFFSFGINSILYQRGIYPSETFTRVQKYGLTLLVTTDLELIKYLNNVVEQLKDWLYKCSVQKLVVVISNIESGEVLERWQFDIECDKGSGEKSQKAIQDEIRSVIRQITATVTFLPLLEVSCSFDLLIYTDKDLVVPEKWEESGPQFITNSEEVRLRSFTTTIHKVNSMVAYKIPVND
modifications: left off: His6, N-terminal, state not stated | DoubleStrep, N-terminal, state not stated
notes: loop‐less Mad2: residues 109–117 (…) replaced with GSG
Take B1: the “limited stability (slow O-Mad2 to C-Mad2 conversion)” value in data set [1] is less than 3 days.
